For series [1], the target named is T1, C17orf80 (Homo sapiens, UniProt Q9BSJ5 1-609). The experiment in a line: EMSA. Background: A gel shift assay detects complexes by their altered migration in electrophoresis.
The target of series [2] is T1, C17orf80. The experiment in a line: EMSA. This is another data set of the same source.

T1 sequence (Q9BSJ5 whole entry): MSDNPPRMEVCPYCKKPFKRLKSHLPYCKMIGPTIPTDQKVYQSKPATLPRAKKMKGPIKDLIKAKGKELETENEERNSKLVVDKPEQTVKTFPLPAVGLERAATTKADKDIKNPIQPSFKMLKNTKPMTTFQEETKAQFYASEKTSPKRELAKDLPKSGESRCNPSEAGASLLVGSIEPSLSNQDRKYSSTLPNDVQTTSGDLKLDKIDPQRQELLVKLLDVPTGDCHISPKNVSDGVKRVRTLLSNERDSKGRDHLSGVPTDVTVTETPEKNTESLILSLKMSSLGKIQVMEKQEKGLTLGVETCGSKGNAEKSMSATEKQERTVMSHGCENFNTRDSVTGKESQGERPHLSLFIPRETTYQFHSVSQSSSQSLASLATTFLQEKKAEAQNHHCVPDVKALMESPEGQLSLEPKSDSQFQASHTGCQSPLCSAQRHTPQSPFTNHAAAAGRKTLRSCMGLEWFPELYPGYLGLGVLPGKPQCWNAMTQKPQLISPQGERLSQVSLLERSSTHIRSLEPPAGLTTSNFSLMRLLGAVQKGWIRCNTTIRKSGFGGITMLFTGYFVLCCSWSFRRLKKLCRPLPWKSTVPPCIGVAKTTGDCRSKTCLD

B1: nuc dsDNA (dsDNA)
DNA 1: TTTATTTCTGAGACGGGGTCTTGTGTTGCCCAGGCTGGAGTGTAATGGCA
DNA 2: TGCCATTACACTCCAGCCTGGGCAACACAAGACCCCGTCTCAGAAATAAA
Usually Kd stands for a measure of binding affinity in units of concentration. Higher therefore signals lower affinity. B1: the affinity with C17orf80 [1], expressed as Kd, was 49 ± 3 nM.

B2: mito dsDNA (dsDNA)
DNA 1: TACTCCTCAATTACCCACATAGGATGAATAATAGCAGTTCTACCGTACAA
DNA 2: TTGTACGGTAGAACTGCTATTATTCATCCTATGTGGGTAATTGAGGAGTA
In turn, B2 had a Kd with C17orf80 [1] of 46 ± 7 nM. TACTCCTCAATTACCCACATAGGATGAATAATAGCAGTTCTACCGTACAA (ssDNA) [mito ssDNA]: the binding result with C17orf80 [2] was “no binding”.
